Test results from paper PMC12102759 (2025).

B1: AMOTL2 peptide 64-79 (Angiomotin-like protein 2), 16-mer library wild type / TNKS ANK (TNKS 12 ANK repeats, residues 174-649) (parent complex)
chain 1: QVLQQATRQEPQGQEH
chain 2: TGVPAVSGALRELLEACRNGDVSRVKRLVDAANVNAKDMAGRKSSPLHFAAGFGRKDVVEHLLQMGANVHARDDGGLIPLHNACSFGHAEVVSLLLCQGADPNARDNWNYTPLHEAAIKGKIDVCIVLLQHGADPNIRNTDGKSALDLADPSAKAVLTGEYKKDELLEAARSGNEEKLMALLTPLNVNCHASDGRKSTPLHLAAGYNRVRIVQLLLQHGADVHAKDKGGLVPLHNACSYGHYEVTELLLKHGACVNAMDLWQFTPLHEAASKNRVEVCSLLLSHGADPTLVNCHGKSAVDMAPTPELRERLTYEFKGHSLLQAAREADLAKVKKTLALEIINFKQPQSHETALHCAVASLHPKRKQVTELLLRKGANVNEKNKDFMTPLHVAAERAHNDVMEVLHKHGAKMNALDTLGQTALHRAALAGHLQTCRLLLSYGSDPSIISLQGFTAAQMGNEAVQQILSESTPIRTSD

Variants of: B1
Assay: proteomic peptide phage display deep mutational scan (ProP-PD DMS): M13 P8 16-mer library selected against immobilised GST-tagged bait for four days (rounds), NGS of the eluted pools per day and pseudo-replica; bait immobilised on MaxiSorp plates (10 µg), library pre-cleared on GST, 2 h binding at 4 °C, five washes; one round per day, days 1-4; value from days 2 and 3

Compared with chain 1 QVLQQNTRQEPQGQEH [chain 1 A6N], chain 1 QVLRQATRQEPQGQEH [chain 1 Q4R] is lower in screen value: 0.000341 average fractional NGS count over selection days 2 and 3 (reads of this peptide / all reads for the bait, averaged over … for the first, 0.000203 average fractional NGS count over selection days 2 and 3 (reads of this peptide / all reads for the bait, averaged over … for the second.

First: chain 1 QVLQQSTRQEPQGQEH [chain 1 A6S]
Second: chain 1 QVLQQATRQIPQGQEH [chain 1 E10I]
The screen value of the first is lower: 0.000255 average fractional NGS count over selection days 2 and 3 (reads of this peptide / all reads for the bait, averaged over … for the first, 0.000303 average fractional NGS count over selection days 2 and 3 (reads of this peptide / all reads for the bait, averaged over … for the second.

Going from chain 1 QVLQPATRQEPQGQEH [chain 1 Q5P] to chain 1 QVLQQATRQEPHGQEH [chain 1 Q12H], the screen value falls from 0.000503 average fractional NGS count over selection days 2 and 3 (reads of this peptide / all reads for the bait, averaged over … to 0.000111 average fractional NGS count over selection days 2 and 3 (reads of this peptide / all reads for the bait, averaged over ….

Compared with chain 1 QVLQQATRQETQGQEH [chain 1 P11T], chain 1 QVLQYATRQEPQGQEH [chain 1 Q5Y] is lower in screen value: 0.00762 average fractional NGS count over selection days 2 and 3 (reads of this peptide / all reads for the bait, averaged over … for the first, 0.000959 average fractional NGS count over selection days 2 and 3 (reads of this peptide / all reads for the bait, averaged over … for the second.

First: chain 1 QVLQQATRQEPQGVEH [chain 1 Q14V]
Second: chain 1 QVHQQATRQEPQGQEH [chain 1 L3H]
The screen value of the first is lower: 0.000381 average fractional NGS count over selection days 2 and 3 (reads of this peptide / all reads for the bait, averaged over … for the first, 0.00318 average fractional NGS count over selection days 2 and 3 (reads of this peptide / all reads for the bait, averaged over … for the second.

Going from chain 1 QVLTQATRQEPQGQEH [chain 1 Q4T] to chain 1 QVLMQATRQEPQGQEH [chain 1 Q4M], the screen value falls from 0.0012 average fractional NGS count over selection days 2 and 3 (reads of this peptide / all reads for the bait, averaged over … to 0.000805 average fractional NGS count over selection days 2 and 3 (reads of this peptide / all reads for the bait, averaged over ….

Going from chain 1 QVLQQATRFEPQGQEH [chain 1 Q9F] to chain 1 QELQQATRQEPQGQEH [chain 1 V2E], the screen value rises from 0.000243 average fractional NGS count over selection days 2 and 3 (reads of this peptide / all reads for the bait, averaged over … to 0.00192 average fractional NGS count over selection days 2 and 3 (reads of this peptide / all reads for the bait, averaged over ….

Compared with chain 1 QVLQQETRQEPQGQEH [chain 1 A6E], chain 1 QVLQQATRQEVQGQEH [chain 1 P11V] is lower in screen value: 0.000304 average fractional NGS count over selection days 2 and 3 (reads of this peptide / all reads for the bait, averaged over … for the first, 0.000173 average fractional NGS count over selection days 2 and 3 (reads of this peptide / all reads for the bait, averaged over … for the second.

Compared with chain 1 QVLQQATRQEPQGYEH [chain 1 Q14Y], chain 1 QVSQQATRQEPQGQEH [chain 1 L3S] is higher in screen value: 0.000143 average fractional NGS count over selection days 2 and 3 (reads of this peptide / all reads for the bait, averaged over … for the first, 0.000145 average fractional NGS count over selection days 2 and 3 (reads of this peptide / all reads for the bait, averaged over … for the second.

Compared with chain 1 QVLQQATRYEPQGQEH [chain 1 Q9Y], chain 1 QVGQQATRQEPQGQEH [chain 1 L3G] is lower in screen value: 0.000466 average fractional NGS count over selection days 2 and 3 (reads of this peptide / all reads for the bait, averaged over … for the first, 0.000399 average fractional NGS count over selection days 2 and 3 (reads of this peptide / all reads for the bait, averaged over … for the second.

Going from chain 1 QVLQQATRQNPQGQEH [chain 1 E10N] to chain 1 QVLQQATRQEPQGQEM [chain 1 H16M], the screen value falls from 0.000822 average fractional NGS count over selection days 2 and 3 (reads of this peptide / all reads for the bait, averaged over … to 0.0005 average fractional NGS count over selection days 2 and 3 (reads of this peptide / all reads for the bait, averaged over ….

Compared with chain 1 QVLQQATRQGPQGQEH [chain 1 E10G], chain 1 QSLQQATRQEPQGQEH [chain 1 V2S] is lower in screen value: 0.00177 average fractional NGS count over selection days 2 and 3 (reads of this peptide / all reads for the bait, averaged over … for the first, 0.000464 average fractional NGS count over selection days 2 and 3 (reads of this peptide / all reads for the bait, averaged over … for the second.

Going from chain 1 QVLQQATRQEPQGQEI [chain 1 H16I] to chain 1 QVRQQATRQEPQGQEH [chain 1 L3R], the screen value falls from 0.000704 average fractional NGS count over selection days 2 and 3 (reads of this peptide / all reads for the bait, averaged over … to 0.000319 average fractional NGS count over selection days 2 and 3 (reads of this peptide / all reads for the bait, averaged over ….

Compared with chain 1 QVLQQATRQKPQGQEH [chain 1 E10K], chain 1 QVLQQATRQEPQGQWH [chain 1 E15W] is higher in screen value: 0.000435 average fractional NGS count over selection days 2 and 3 (reads of this peptide / all reads for the bait, averaged over … for the first, 0.00103 average fractional NGS count over selection days 2 and 3 (reads of this peptide / all reads for the bait, averaged over … for the second.

Compared with chain 1 QVVQQATRQEPQGQEH [chain 1 L3V], chain 1 QVLQQATRPEPQGQEH [chain 1 Q9P] is higher in screen value: 0.00036 average fractional NGS count over selection days 2 and 3 (reads of this peptide / all reads for the bait, averaged over … for the first, 0.00216 average fractional NGS count over selection days 2 and 3 (reads of this peptide / all reads for the bait, averaged over … for the second.

Going from chain 1 QVLQQATRLEPQGQEH [chain 1 Q9L] to chain 1 QVLYQATRQEPQGQEH [chain 1 Q4Y], the screen value rises from 0.000942 average fractional NGS count over selection days 2 and 3 (reads of this peptide / all reads for the bait, averaged over … to 0.00141 average fractional NGS count over selection days 2 and 3 (reads of this peptide / all reads for the bait, averaged over ….

Going from chain 1 QVLQTATRQEPQGQEH [chain 1 Q5T] to chain 1 QVLWQATRQEPQGQEH [chain 1 Q4W], the screen value falls from 0.00669 average fractional NGS count over selection days 2 and 3 (reads of this peptide / all reads for the bait, averaged over … to 0.000181 average fractional NGS count over selection days 2 and 3 (reads of this peptide / all reads for the bait, averaged over ….

Going from chain 1 QVEQQATRQEPQGQEH [chain 1 L3E] to chain 1 QVLQQATRQLPQGQEH [chain 1 E10L], the screen value falls from 0.00384 average fractional NGS count over selection days 2 and 3 (reads of this peptide / all reads for the bait, averaged over … to 0.000172 average fractional NGS count over selection days 2 and 3 (reads of this peptide / all reads for the bait, averaged over ….

First: chain 1 QVLQQATRQEAQGQEH [chain 1 P11A]
Second: chain 1 QVLQQATRHEPQGQEH [chain 1 Q9H]
The screen value of the first is lower: 0.000173 average fractional NGS count over selection days 2 and 3 (reads of this peptide / all reads for the bait, averaged over … for the first, 0.000266 average fractional NGS count over selection days 2 and 3 (reads of this peptide / all reads for the bait, averaged over … for the second.

First: chain 1 QRLQQATRQEPQGQEH [chain 1 V2R]
Second: chain 1 QVLQAATRQEPQGQEH [chain 1 Q5A]
The screen value of the first is higher: 0.000931 average fractional NGS count over selection days 2 and 3 (reads of this peptide / all reads for the bait, averaged over … for the first, 0.000657 average fractional NGS count over selection days 2 and 3 (reads of this peptide / all reads for the bait, averaged over … for the second.

First: chain 1 QVLQLATRQEPQGQEH [chain 1 Q5L]
Second: chain 1 QVLQRATRQEPQGQEH [chain 1 Q5R]
The screen value of the first is lower: 0.00018 average fractional NGS count over selection days 2 and 3 (reads of this peptide / all reads for the bait, averaged over … for the first, 0.000183 average fractional NGS count over selection days 2 and 3 (reads of this peptide / all reads for the bait, averaged over … for the second.

Going from chain 1 QVLQQATRQEPWGQEH [chain 1 Q12W] to chain 1 QVLAQATRQEPQGQEH [chain 1 Q4A], the screen value rises from 0.000556 average fractional NGS count over selection days 2 and 3 (reads of this peptide / all reads for the bait, averaged over … to 0.00355 average fractional NGS count over selection days 2 and 3 (reads of this peptide / all reads for the bait, averaged over ….

chain 1 QVLQQATRQYPQGQEH [chain 1 E10Y] and chain 1 QVLQQATRQEPFGQEH [chain 1 Q12F] are the same in screen value: 0.00125 average fractional NGS count over selection days 2 and 3 (reads of this peptide / all reads for the bait, averaged over … for the first, 0.00125 average fractional NGS count over selection days 2 and 3 (reads of this peptide / all reads for the bait, averaged over … for the second.

First: chain 1 QVLQQAQRQEPQGQEH [chain 1 T7Q]
Second: chain 1 QVLQQATRQEPQGQDH [chain 1 E15D]
The screen value of the first is lower: 0.000226 average fractional NGS count over selection days 2 and 3 (reads of this peptide / all reads for the bait, averaged over … for the first, 0.000568 average fractional NGS count over selection days 2 and 3 (reads of this peptide / all reads for the bait, averaged over … for the second.

Going from chain 1 QVLQQATRTEPQGQEH [chain 1 Q9T] to chain 1 QVLQHATRQEPQGQEH [chain 1 Q5H], the screen value rises from 0.000851 average fractional NGS count over selection days 2 and 3 (reads of this peptide / all reads for the bait, averaged over … to 0.0129 average fractional NGS count over selection days 2 and 3 (reads of this peptide / all reads for the bait, averaged over ….

Going from chain 1 QVLQQASRQEPQGQEH [chain 1 T7S] to chain 1 QDLQQATRQEPQGQEH [chain 1 V2D], the screen value rises from 0.000189 average fractional NGS count over selection days 2 and 3 (reads of this peptide / all reads for the bait, averaged over … to 0.000341 average fractional NGS count over selection days 2 and 3 (reads of this peptide / all reads for the bait, averaged over ….

Going from chain 1 QVLQQMTRQEPQGQEH [chain 1 A6M] to chain 1 QVLEQATRQEPQGQEH [chain 1 Q4E], the screen value falls from 0.000267 average fractional NGS count over selection days 2 and 3 (reads of this peptide / all reads for the bait, averaged over … to 0.000127 average fractional NGS count over selection days 2 and 3 (reads of this peptide / all reads for the bait, averaged over ….

Going from chain 1 QVLQQATRQEPQGQHH [chain 1 E15H] to chain 1 QVLGQATRQEPQGQEH [chain 1 Q4G], the screen value falls from 0.000392 average fractional NGS count over selection days 2 and 3 (reads of this peptide / all reads for the bait, averaged over … to 0.000278 average fractional NGS count over selection days 2 and 3 (reads of this peptide / all reads for the bait, averaged over ….
